Reference: patent US20120328625A1
Values belong to the substance of their own block, whether it stands above or below them.

Experiments:
[1] = biological target: Shh-N in conditioned medium (human) (UniProt Q15465); assay: cell-based or functional assay
[2] = biological target: full length human Shh expressed on the cell surface (human) (UniProt Q15465); assay: cell-based or functional assay
[3] = biological target: full length human Shh expressed on the cell surface (human) (UniProt Q15465); assay: flow cytometry, transfected against parental 293T cells
[4] = biological target: biotinylated human Shh (human) (UniProt Q15465); assay: ELISA, biotin-Shh coated at 500 ng/ml on neutravidin; antibody 1 ug/ml
[5] = biological target: full length human Shh expressed on the cell surface (human) (UniProt Q15465); assay: FMAT, antibody 10 µg/ml on 293T cells transiently expressing human Shh
[6] = biological target: full length human Shh expressed on the cell surface (human) (UniProt Q15465); assay: flow cytometry, transfected against parental 293T cells; antibody 2 ug/ml
[7] = biological target: full length human Shh expressed on the cell surface (human) (UniProt Q15465); assay: flow cytometry, transfected against parental 293T cells; antibody 0.2 ug/ml
[8] = biological target: full length human Shh expressed on the cell surface (human) (UniProt Q15465); assay: flow cytometry, transfected against parental 293T cells; antibody 0.02 ug/ml
[9] = biological target: full length human Shh expressed on the cell surface (human) (UniProt Q15465); assay: flow cytometry, antibody 2 µg/ml, 293T cells transiently expressing human Shh
[10] = biological target: full length human Shh expressed on the cell surface (human) (UniProt Q15465); assay: flow cytometry, 293T cells transiently transfected with human Shh; antibody 2 ug/ml
[11] = biological target: full length human Shh expressed on the cell surface (human) (UniProt Q15465); assay: flow cytometry, 293T cells transiently transfected with human Shh; antibody 0.2 ug/ml
[12] = biological target: full length human Shh expressed on the cell surface (human) (UniProt Q15465); assay: flow cytometry, 293T cells transiently transfected with human Shh; antibody 0.02 ug/ml

- % Inhibition of Gli1 reporter, Conditioned Media N = 1, 20 µg/ml [1]: 2%
- % Inhibition of Gli1 reporter, Conditioned Media N = 2, 20 µg/ml [1]: 23%
- % Inhibition of Gli1 reporter, Co-Culture N = 1, 20 µg/ml [2]: 18%
- % Inhibition of Gli1 reporter, Co-Culture N = 2, 20 µg/ml [2]: 7%
- % Inhibition of Gli1 reporter, Co-Culture N = 3, 20 µg/ml [2]: 2%
Substance: huIgG2/4 (antibody)

- IC50, inhibition of osteoblast differentiation (alkaline phosphatase) of C3H10T1/2 cells [1]: 2.9 nM
Substance: 5E1 (antibody)

- Ratio [3]: 0.7
- OD [4]: 4.81 OD
- FL1 X COUNT [5]: 1.47e+06
- Ratio [6]: 443
- Ratio [7]: 106
- Ratio [8]: 13.7
- X Geo Mean (Transients) [9]: 3
- X Geo Mean (Transients) [10]: 965
- X Geo Mean (Transients) [11]: 221
- X Geo Mean (Transients) [12]: 28.5
Substance: rat anti-Shh antibody (cat# MAB4641, R&D Systems, Inc.)
